# Assay results published in article PMC8893695, “The microprotein Nrs1 rewires the G1/S transcriptional machinery during nitrogen limitation in budding yeast” (PLoS Biology, 2022).
# Columns and labels:
# ^FLAGSwi4-Swi6 complex [1] = target: T1, ^FLAGSwi4-Swi6 complex (S. cerevisiae, UniProt P25302 1-1093; P09959 1-803); experiment: co-IP; recombinant ^FLAGSwi4-Swi6-^GSTWhi5 complexes (0.1 ug ^GSTWhi5) incubated with 0.1, 0.2 and 0.5 ug His6-tagged Nrs1 (4, 8 and 20 Nrs1:Whi5 molar ratio), captured on anti-FLAG beads; blots with anti-GST and anti-HIS6; conditions: both partners purified
# T1 construct: Swi4, S. cerevisiae; Swi6, S. cerevisiae; also called SBF; recombinant SBF; source: baculovirus-infected insect cells, purified (anti-FLAG M2 resin, eluted with FLAG peptide)
# ^FLAGSwi4-Swi6 complex [2] = target: T1, ^FLAGSwi4-Swi6 complex; experiment: pull-down; recombinant ^HAWhi5 or ^GSTNrs1 titrated into preformed ^FLAGSwi4-Swi6-^GSTNrs1 or ^FLAGSwi4-Swi6-^HAWhi5 complexes immobilised on anti-FLAG resin; immunoblot and Coomassie; conditions: both partners purified
# T1 sequence (P25302 whole entry, chain 1 of 2): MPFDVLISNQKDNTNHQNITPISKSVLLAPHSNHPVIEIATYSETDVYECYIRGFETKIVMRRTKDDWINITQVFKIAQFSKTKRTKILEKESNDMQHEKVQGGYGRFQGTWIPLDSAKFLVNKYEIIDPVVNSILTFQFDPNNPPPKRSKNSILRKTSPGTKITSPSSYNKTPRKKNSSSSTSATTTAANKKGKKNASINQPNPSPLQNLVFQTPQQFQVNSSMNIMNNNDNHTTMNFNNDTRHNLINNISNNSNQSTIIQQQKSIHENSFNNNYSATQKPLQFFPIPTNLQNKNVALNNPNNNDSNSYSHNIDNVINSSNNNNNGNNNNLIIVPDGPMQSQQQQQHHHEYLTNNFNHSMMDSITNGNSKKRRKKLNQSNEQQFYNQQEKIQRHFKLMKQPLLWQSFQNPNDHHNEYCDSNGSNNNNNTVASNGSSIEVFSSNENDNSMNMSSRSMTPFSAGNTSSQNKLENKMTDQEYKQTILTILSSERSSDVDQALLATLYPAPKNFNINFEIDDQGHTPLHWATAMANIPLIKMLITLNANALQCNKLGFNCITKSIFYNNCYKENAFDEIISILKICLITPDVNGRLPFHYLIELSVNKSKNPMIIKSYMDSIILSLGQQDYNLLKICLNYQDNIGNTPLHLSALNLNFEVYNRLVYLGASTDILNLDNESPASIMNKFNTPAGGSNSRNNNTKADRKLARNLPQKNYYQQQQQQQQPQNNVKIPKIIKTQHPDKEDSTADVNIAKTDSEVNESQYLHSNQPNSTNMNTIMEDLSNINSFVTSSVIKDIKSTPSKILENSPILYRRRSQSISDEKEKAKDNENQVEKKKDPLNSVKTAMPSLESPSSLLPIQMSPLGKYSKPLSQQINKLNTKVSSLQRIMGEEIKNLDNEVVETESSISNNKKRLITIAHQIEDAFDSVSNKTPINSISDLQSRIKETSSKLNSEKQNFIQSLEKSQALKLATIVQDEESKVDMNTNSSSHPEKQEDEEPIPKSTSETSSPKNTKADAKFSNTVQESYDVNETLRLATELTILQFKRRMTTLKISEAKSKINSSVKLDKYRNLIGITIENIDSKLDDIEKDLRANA
# T1 sequence (P09959 whole entry, chain 2 of 2): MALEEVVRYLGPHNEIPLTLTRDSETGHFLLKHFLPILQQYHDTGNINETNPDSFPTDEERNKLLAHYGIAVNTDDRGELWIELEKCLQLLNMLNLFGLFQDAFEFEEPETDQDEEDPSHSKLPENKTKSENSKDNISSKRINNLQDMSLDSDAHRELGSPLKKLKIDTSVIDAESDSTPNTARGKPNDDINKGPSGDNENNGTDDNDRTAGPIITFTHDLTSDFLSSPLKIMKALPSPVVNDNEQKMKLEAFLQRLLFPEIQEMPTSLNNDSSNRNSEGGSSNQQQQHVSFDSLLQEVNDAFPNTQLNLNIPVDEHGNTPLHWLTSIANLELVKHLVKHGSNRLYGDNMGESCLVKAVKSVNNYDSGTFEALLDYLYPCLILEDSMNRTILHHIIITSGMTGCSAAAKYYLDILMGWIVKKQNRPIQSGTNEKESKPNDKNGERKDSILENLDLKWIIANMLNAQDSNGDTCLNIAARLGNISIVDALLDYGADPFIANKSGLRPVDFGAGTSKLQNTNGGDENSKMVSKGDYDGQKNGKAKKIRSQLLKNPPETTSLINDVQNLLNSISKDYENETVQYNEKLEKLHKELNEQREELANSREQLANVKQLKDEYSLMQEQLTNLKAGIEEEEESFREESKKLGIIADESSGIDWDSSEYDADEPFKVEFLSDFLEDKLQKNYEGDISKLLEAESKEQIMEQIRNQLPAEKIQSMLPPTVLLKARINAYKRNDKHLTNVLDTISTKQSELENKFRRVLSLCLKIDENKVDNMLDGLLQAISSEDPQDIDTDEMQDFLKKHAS
binder,measurement,setting,value
"^GSTWhi5 (natural protein, S. cerevisiae, UniProt Q12416 1-295, looked up, Whi5, S. cerevisiae; also called recombinant GST-tagged Whi5; source: recombinant) MSLRTPKRSRTSDEQEQEQEQEQVQNPDTHVNNEHQQRPGPTTLLSTPVRLKNGFGTPSPPSPPGITKSITKSRRRPSTTSLQGIFMSPVNKRRVGITAHGRVYDHNDDGHESESEDDENEEENENQKKYDGHVSMPLLPPTTPKSRRSEVFLSPSPRLRSPPTAARRSTGERPIREISHTLRTRLNYALVKLQNGWTDKTLPELETELAPAVQTPPRRYHNRFPDSADAGTSAHTAFLQALGGHPPREEATAVETLMLLSSPTKKQQHRPVPATSAGEPTDETEPESDTEVETS",binding result,^FLAGSwi4-Swi6 complex [1],binds
"recombinant ^HAWhi5 (natural protein, S. cerevisiae, UniProt Q12416 1-295, looked up, Whi5, S. cerevisiae; source: recombinant) MSLRTPKRSRTSDEQEQEQEQEQVQNPDTHVNNEHQQRPGPTTLLSTPVRLKNGFGTPSPPSPPGITKSITKSRRRPSTTSLQGIFMSPVNKRRVGITAHGRVYDHNDDGHESESEDDENEEENENQKKYDGHVSMPLLPPTTPKSRRSEVFLSPSPRLRSPPTAARRSTGERPIREISHTLRTRLNYALVKLQNGWTDKTLPELETELAPAVQTPPRRYHNRFPDSADAGTSAHTAFLQALGGHPPREEATAVETLMLLSSPTKKQQHRPVPATSAGEPTDETEPESDTEVETS",binding result,^FLAGSwi4-Swi6 complex [2],binds
